In US20230038638A1, “COMPLEMENT FACTOR I-RELATED COMPOSITIONS AND METHODS” (published 2023):
Positions count from the first letter of the chain named.

Experiments:
human C4b (human) [1] = molecular target: T1, human C4b (human) (UniProt P0C0L4)
T1 sequence: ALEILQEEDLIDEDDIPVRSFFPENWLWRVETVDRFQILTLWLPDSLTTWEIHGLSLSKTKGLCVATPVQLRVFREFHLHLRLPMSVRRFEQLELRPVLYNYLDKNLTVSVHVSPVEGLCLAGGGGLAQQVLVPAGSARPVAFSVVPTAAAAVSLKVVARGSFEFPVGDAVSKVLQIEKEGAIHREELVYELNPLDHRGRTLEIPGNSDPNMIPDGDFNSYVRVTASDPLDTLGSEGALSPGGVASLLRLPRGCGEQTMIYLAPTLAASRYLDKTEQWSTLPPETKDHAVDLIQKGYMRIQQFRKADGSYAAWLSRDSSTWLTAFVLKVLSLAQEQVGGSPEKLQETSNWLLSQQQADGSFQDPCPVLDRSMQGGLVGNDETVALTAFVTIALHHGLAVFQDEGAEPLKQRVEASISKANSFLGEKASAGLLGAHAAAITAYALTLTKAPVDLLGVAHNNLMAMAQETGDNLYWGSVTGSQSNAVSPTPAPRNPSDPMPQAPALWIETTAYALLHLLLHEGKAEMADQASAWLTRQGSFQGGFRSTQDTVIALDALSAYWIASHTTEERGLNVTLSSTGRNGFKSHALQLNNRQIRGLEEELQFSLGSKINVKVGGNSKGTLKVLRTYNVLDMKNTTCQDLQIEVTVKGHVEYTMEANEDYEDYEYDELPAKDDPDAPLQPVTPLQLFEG

[2] = molecular target: soluble human C3b (human) (UniProt P01024)
human C4b (human) [3] = molecular target: T2, human C4b (human) (UniProt P0C0L5)
T2 sequence: T1 sequence with A151T, D317G, P364L, C365S, L368I, D369H, N420S, V451A, L454R, S530A

C4c EC50 (nM) (human C4b (human) [1]) | iC3b Screen Ref Fold (fold vs CFI-HSA wild type) [2] | C4b Screen Ref Fold (fold vs CFI-HSA wild type) (human C4b (human) [3]) | C4c EC50 (human C4b (human) [1]) | iC3b Screen Ref Fold (fold of CFI-HSA wild type) [2] | C4b Screen Ref Fold (fold of CFI-HSA wild type) (human C4b (human) [3]) | Substance
 |  |  | > 1000 nM | 1.07 | 0.78 | CFI-HSA variant K488E (enzyme)
44.1 nM | 0.27 | 6.8 |  |  |  | CFI-HSA variant N531G; E457G; E461Q; F464Y (enzyme)
 |  |  | 43.5 nM | 1.39 | 5.23 | CFI-HSA variant N531G; K534Q (enzyme)
 |  |  | 126 nM | 1.28 | 4.19 | CFI-HSA variant N531G; P535G (enzyme)
 |  |  | 118 nM | 0.93 | 4.47 | CFI-HSA variant N531G; P535G; K534Q (enzyme)
 |  |  | 136 nM | 0.95 | 3.82 | CFI-HSA variant N531G; P535G; P558S (enzyme)
897 nM | 0.55 | 0.22 |  |  |  | CFI-HSA variant R321A (enzyme)
 |  |  | 375 nM | 2.1 | 1.96 | CFI-HSA variant S552G; P558S (enzyme)
 |  |  | 74.5 nM | 0.26 | 2.53 | CFI-HSA variant S552G; Y553H (enzyme)
 |  |  | 224 nM | 0.23 | 2.42 | CFI-HSA variant S552G; Y553H; F559L (enzyme)
 |  |  | 108 nM | 0.66 | 3.5 | CFI-HSA variant S552G; Y553H; V565I; P558S (enzyme)
106 nM | 0.77 | 6.31 |  |  |  | CFI-HSA variant Y20F; E38A; S250A; D425A; Y408L; N531G; E457G; E461Q; R462K; F464Y (enzyme)
163 nM | 0.86 | 5.78 |  |  |  | CFI-HSA variant Y408L; E457G; E461Q; R462K; F464Y (enzyme)
 |  |  | 83.8 nM | 0.97 | 5.24 | CFI-HSA variant Y408L; E457G; K534Q (enzyme)
34.8 nM |  |  |  | 2.15 | 4.66 | CFI-HSA variant Y408L; E457G; N531G; E416A (enzyme)
 |  |  | 48.4 nM | 0.95 | 3.66 | CFI-HSA variant Y408L; E457G; N531G; N422K (enzyme)
 |  |  | 32.2 nM | 1.12 | 5.01 | CFI-HSA variant Y408L; E457G; N531G; P535G; D425K (enzyme)
 |  |  | 21.1 nM | 1.2 | 4.68 | CFI-HSA variant Y408L; E457G; N531G; P535G; K534Q (enzyme)

Second part, the substance before the results:

Substance | C4c EC50 (nM) (human C4b (human) [1]) | iC3b Screen Ref Fold (fold vs CFI-HSA wild type) [2] | C4b Screen Ref Fold (fold vs CFI-HSA wild type) (human C4b (human) [3]) | C4c EC50 (human C4b (human) [1]) | iC3b Screen Ref Fold (fold of CFI-HSA wild type) [2] | C4b Screen Ref Fold (fold of CFI-HSA wild type) (human C4b (human) [3])
CFI-HSA variant E530D-N531G; G533A-K534Q-P535K-E536N (enzyme) | 470 nM | 1.63 | 1.4 |  |  | 
CFI-HSA variant F464G (enzyme) |  |  |  | > 1000 nM | 0.01 | 0.24
CFI-HSA variant N531G; D425R; E416A (enzyme) | 81.4 nM |  |  |  | 3.03 | 2.64
CFI-HSA variant N531G; P535G; D425K (enzyme) |  |  |  | 78.9 nM | 1.35 | 4.53
CFI-HSA variant N531G; P558S (enzyme) |  |  |  | 63.2 nM | 1.35 | 5.28
CFI-HSA variant S552G; Y553H; F559L; V565I (enzyme) |  |  |  | 83.6 nM | 0.27 | 3.1
CFI-HSA variant S552G; Y553H; P558S (enzyme) |  |  |  | 139 nM | 0.44 | 2.04
CFI-HSA variant S552G; Y553H; V565I (enzyme) |  |  |  | 207 nM | 0.37 | 2.57
CFI-HSA variant Y408F; N531G (enzyme) | 75.7 nM | 1.24 | 5.78 |  |  | 
CFI-HSA variant Y408L; D425R; E416A (enzyme) | 221 nM |  |  |  | 2.26 | 0.43
CFI-HSA variant Y408L; E457G; D425K (enzyme) |  |  |  | 102 nM | 1.21 | 5.47
CFI-HSA variant Y408L; E457G; D425R; E416A (enzyme) | 181 nM |  |  |  | 3.02 | 2.03
CFI-HSA variant Y408L; E457G; E416A (enzyme) | 170 nM |  |  |  | 2.51 | 2.11
CFI-HSA variant Y408L; E457G; E461Q; R462K (enzyme) | 90.2 nM | 0.89 | 3.98 |  |  | 
CFI-HSA variant Y408L; E457G; N422K (enzyme) |  |  |  | 43.6 nM | 1.87 | 3.1
CFI-HSA variant Y408L; E457G; N531G; K534Q (enzyme) |  |  |  | 26.4 nM | 0.54 | 5.16
CFI-HSA variant Y408L; E457G; N531G; P535G (enzyme) |  |  |  | 50.5 nM | 1.06 | 5.28
CFI-HSA variant Y408L; E457G; N531G; P535G; N422K (enzyme) |  |  |  | 59.7 nM | 1.77 | 3.64
